{"source": "paper PMC5040351", "about": "(Arteriosclerosis, thrombosis, and vascular biology, 2016)", "molecules": {"B1": {"name": "cytoplasmic tail of calnexin (CNX-CT), recombinant (domain or fragment, UniProt P27824 503-592, looked up)", "chain": "CSGKKQTSGMEYKKTDAPQPDVKEEEEEKEEEKDKGDEEEEGEEKLEEKQKSDAEEDGGTVSQEEEDRKPKAEEDEILNRSPRNRKPRRE"}}, "key": {"[1]": {"biological_target": "endogenous calnexin (CNX) (human (endogenous in HEK293T and HeLa)) (UniProt P27824)", "experiment": "co-IP"}, "[2]": {"biological_target": "ABCA1-FLAG (ATP-Binding Cassette A1 cholesterol transporter, FLAG-tagged) (UniProt O95477)", "experiment": "co-IP"}, "[3]": {"biological_target": "HA-tagged calnexin with deletion of the lumenal repeat segment (CNXΔ276-409) (UniProt P27824)", "experiment": "co-IP"}, "[4]": {"biological_target": "myristoylated NefSF2 protein (HIV-1 SF2, UniProt P03407 1-210, myristoylated)", "experiment": "SPR"}}, "data": [{"molecule": "Nef K7A (single lysine mutant of Nef_(cons)) (natural protein)", "values": [{"measurement": "percent reduction of co-precipitated Nef against WT Nef", "setting": "[1]", "value": 70, "unit": "%"}]}, {"molecule": "Nef K4,7A (double lysine mutant of Nef_(cons)) (natural protein)", "values": [{"measurement": "percent reduction of co-precipitated Nef against wild-type Nef", "setting": "[2]", "value": 30, "unit": "%"}]}, {"molecule": "HIV-1 Nef expressed from the Nef_(cons) vector (wild type) (natural protein)", "values": [{"measurement": "percent reduction of co-precipitated Nef against WT CNX", "setting": "[3]", "value": 40, "unit": "%"}]}, {"molecule": "Nef K4A (single lysine mutant of Nef_(cons)) (natural protein)", "values": [{"measurement": "percent reduction of co-precipitated Nef against WT Nef", "setting": "[1]", "value": 80, "unit": "%"}]}, {"molecule": "B1", "values": [{"measurement": "Kd", "setting": "[4]", "value": 9.4, "unit": "nM"}, {"measurement": "koff", "setting": "[4]", "value": 0.00857, "unit": "s⁻¹"}, {"measurement": "kon", "setting": "[4]", "value": 908000, "unit": "M⁻¹ s⁻¹"}]}]}
